Conditions: Aspergillus oryzae (strain ATCC 42149 / RIB 40), pH 6, Thermal, DSC, sodium acetate calcium acetate 20 mM 2 mM, Mops 50 mM, reversible: yes, whole UniProt chain shown

B1: Guanyl-specific ribonuclease T1 wild type, P00651 (protein)
chain: MMYSKLLTLTTLLLPTALALPSLVERACDYTCGSNCYSSSDVSTAQAAGYQLHEDGETVGSNSYPHKYNNYEGFDFSVSSPYYEWPILSSGDVYSGGSPGADRVVFNENNQLAGVITHTGASGNNFVECT
With B1 the “heat capacity change of unfolding” value (25 °C) was 0.98 kcal/mol/K, the unfolding free energy (25 °C) was 7.82 kcal/mol and the Tm was 57.2 °C. The “unfolding enthalpy (calorimetric)” value was 96.6 kcal/mol.
